Assay results as given in US20100055103A1 (Genentech, published 2010).
Values belong to the binder of their own block, whether it stands above or below them.

Key:
[1] = molecular target: T1, Human IL-17F (R&D Systems, cat #1335-IL-025/CF) (human, UniProt Q96PD4 31-163); assay: screening of cross-reactive clones; assay not given
T1 construct: That entry is derived from the native cDNA and may include the signal peptide; also called rhIL-17F; recombinant human IL-17F
T1 sequence: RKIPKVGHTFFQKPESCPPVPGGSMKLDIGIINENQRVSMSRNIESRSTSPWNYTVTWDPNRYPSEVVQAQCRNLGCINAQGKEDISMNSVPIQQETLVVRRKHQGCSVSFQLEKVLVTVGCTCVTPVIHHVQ

[2] = molecular target: T2, Recombinant human IL-17A/F heterodimer (human, UniProt Q16552 24-155; Q96PD4 31-163); assay: as above
T2 construct: also called IL-17A/F (GNE)
T2 sequence (Q16552 24-155 limits assumed, one chain of several): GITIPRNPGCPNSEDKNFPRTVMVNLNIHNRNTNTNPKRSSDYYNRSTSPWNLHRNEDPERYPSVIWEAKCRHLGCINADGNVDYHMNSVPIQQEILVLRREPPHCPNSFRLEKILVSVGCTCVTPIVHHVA

[3] = molecular target: T3, Human IL-17F dimer (baculovirus/Hi5-expressed, His-tag removed by thrombin) (human, UniProt Q96PD4 31-163, limits assumed); assay: X-ray crystal structure, content of the asymmetric unit
T3 construct: The N-terminal His-tag and thrombin site were introduced and then cleaved off; also called purified recombinant IL17F
T3 sequence: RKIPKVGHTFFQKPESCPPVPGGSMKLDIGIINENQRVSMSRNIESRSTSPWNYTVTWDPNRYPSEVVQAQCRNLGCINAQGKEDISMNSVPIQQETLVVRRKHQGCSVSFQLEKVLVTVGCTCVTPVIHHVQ

[4] = molecular target: T1, Human IL-17F (R&D Systems, cat …); assay: BIAcore SPR, IgG captured by anti-human Fc

- binding result [1]: binds
- binding result [2]: binds
B1: YW278.15 (antibody, V domains shown)
VH: EVQLVESGGGLVQPGGSLRLSCAASGFTFTDYDISWVRQAPGKGLEWVASISPSDGYTYYADSVKGRFTISADTSKNTAYLQMNSLRAEDTAVYYCARYLYWSYVMDYWGQGTLVTVSS
VL: DIQMTQSPSSLSASVGDRVTITCRASQDVSTAVAWYQQKPGKAPKLLIYSASFLYSGVPSRFSGSGSGTDFTLTISSLQPEDFATYYCQQSYTTPPTFGQGTKVEIKR

- binding result [3]: binds
B2: Fab fragment of YW 278.15.18.C55S (Fab, V domains shown)
VH: EVQLVESGGGLVQPGGSLRLSCAASGFTFTDYDISWVRQAPGKGLEWVASISPPDSYTYYADSVKGRFTISADTSKNTAYLQMNSLRAEDTAVYYCARYLYWSYVMDYWGQGTLVTVSS
VL: DIQMTQSPSSLSASVGDRVTITCRASQDVSTAVAWYQQKPGKAPKLLIYSASFLYSGVPSRFSGSGSGTDFTLTISSLQPEDFATYYCQQSYTAKLTFGQGTKVEIKR
notes: also called YW278.15.18C55S Fab

- binding result [4]: binds
B3: YW278.15.2 (antibody, V domains shown)
VH: EVQLVESGGGLVQPGGSLRLSCAASGFSFIDYDISWVRQAPGKGLEWVASISPYDGYTYYADSVKGRFTISADTSKNTAYLQMNSLRAEDTAVYYCARYLYWSYVMDYWGQGTLVTVSS
VL: DIQMTQSPSSLSASVGDRVTITCRASQDVSTAVAWYQQKPGKAPKLLIYSASFLYSGVPSRFSGSGSGTDFTLTISSLQPEDFATYYCQQYYIYPATFGQGTKVEIKR

- binding result [4]: binds
B4: YW278.15.18 (antibody, V domains shown)
VH: EVQLVESGGGLVQPGGSLRLSCAASGFTFTDYDISWVRQAPGKGLEWVASISPPDCYTYYADSVKGRFTISADTSKNTAYLQMNSLRAEDTAVYYCARYLYWSYVMDYWGQGTLVTVSS
VL: DIQMTQSPSSLSASVGDRVTITCRASQDVSTAVAWYQQKPGKAPKLLIYSASFLYSGVPSRFSGSGSGTDFTLTISSLQPEDFATYYCQQSYTAKLTFGQGTKVEIKR
